# Reference: US20200024360A1 (Janssen / Centocor, published 2020)
# T1: recombinant chimpanzee PSMA extracellular domain (ECD) protein (Pan troglodytes, UniProt Q04609 44-750 (human entry))
# T1 construct: also called Chimp PSMA ECD; PSMG8
# T1 chain: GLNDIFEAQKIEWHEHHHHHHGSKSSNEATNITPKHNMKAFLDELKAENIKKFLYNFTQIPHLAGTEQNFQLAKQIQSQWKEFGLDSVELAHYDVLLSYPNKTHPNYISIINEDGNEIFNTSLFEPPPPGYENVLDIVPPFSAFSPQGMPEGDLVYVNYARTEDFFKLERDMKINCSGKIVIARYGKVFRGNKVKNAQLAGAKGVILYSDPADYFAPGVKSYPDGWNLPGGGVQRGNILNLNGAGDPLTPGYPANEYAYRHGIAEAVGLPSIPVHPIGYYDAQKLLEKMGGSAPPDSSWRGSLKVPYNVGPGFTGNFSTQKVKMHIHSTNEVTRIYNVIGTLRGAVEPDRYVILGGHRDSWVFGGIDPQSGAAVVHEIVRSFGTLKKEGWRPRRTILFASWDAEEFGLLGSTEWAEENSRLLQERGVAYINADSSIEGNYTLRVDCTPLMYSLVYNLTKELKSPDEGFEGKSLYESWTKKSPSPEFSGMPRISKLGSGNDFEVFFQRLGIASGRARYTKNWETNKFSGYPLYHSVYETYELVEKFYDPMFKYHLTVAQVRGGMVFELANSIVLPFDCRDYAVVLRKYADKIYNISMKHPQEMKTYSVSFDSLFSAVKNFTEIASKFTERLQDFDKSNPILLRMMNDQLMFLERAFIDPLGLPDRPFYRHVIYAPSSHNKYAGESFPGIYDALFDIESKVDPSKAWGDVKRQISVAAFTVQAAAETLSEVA
# T2: recombinant cynomolgous monkey PSMA extracellular domain (ECD) protein (Macaca fascicularis, UniProt Q04609 48-750 (human entry), biotin on the Avi tag)
# T2 construct: also called cyno PSMA ECD; PSMG1
# T2 chain: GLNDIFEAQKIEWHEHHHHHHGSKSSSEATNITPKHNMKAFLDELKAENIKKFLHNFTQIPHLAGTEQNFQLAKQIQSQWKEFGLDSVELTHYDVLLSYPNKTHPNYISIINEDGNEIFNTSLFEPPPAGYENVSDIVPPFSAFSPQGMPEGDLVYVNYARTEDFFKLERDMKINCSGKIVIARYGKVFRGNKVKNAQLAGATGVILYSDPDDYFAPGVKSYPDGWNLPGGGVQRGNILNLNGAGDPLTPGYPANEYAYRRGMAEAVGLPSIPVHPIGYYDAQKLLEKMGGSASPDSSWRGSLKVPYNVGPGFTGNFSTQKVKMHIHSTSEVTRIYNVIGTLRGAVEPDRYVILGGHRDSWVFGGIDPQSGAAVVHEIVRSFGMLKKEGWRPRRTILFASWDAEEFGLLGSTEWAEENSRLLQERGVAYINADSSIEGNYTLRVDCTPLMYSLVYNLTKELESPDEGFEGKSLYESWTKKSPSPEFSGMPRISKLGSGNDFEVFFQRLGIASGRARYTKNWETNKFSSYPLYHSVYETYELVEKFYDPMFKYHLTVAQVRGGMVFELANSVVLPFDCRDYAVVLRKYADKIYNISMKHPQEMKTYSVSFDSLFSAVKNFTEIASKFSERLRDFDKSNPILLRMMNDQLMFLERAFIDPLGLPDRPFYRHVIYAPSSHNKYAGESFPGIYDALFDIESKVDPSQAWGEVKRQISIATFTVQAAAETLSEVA
# B1: PS3B27 (bispecific antibody, human IgG4 S228P, kappa, lambda, F234A L235A)
# heavy 1: not shown
# light 1: not shown
# heavy 2: EVQLVESGGGLVQPGGSLRLSCAASGFTFNTYAMNWVRQAPGKGLEWVARIRSKYNNYATYYAASVKGRFTISRDDSKNSLYLQMNSLKTEDTAVYYCARHGNFGNSYVSWFAYWGQGTLVTVSSASTKGPSVFPLAPCSRSTSESTAALGCLVKDYFPEPVTVSWNSGALTSGVHTFPAVLQSSGLYSLSSVVTVPSSSLGTKTYTCNVDHKPSNTKVDKRVESKYGPPCPPCPAPEAAGGPSVFLFPPKPKDTLMISRTPEVTCVVVDVSQEDPEVQFNWYVDGVEVHNAKTKPREEQFNSTYRVVSVLTVLHQDWLNGKEYKCKVSNKGLPSSIEKTISKAKGQPREPQVYTLPPSQEEMTKNQVSLTCLVKGFYPSDIAVEWESNGQPENNYKTTPPVLDSDGSFLLYSKLTVDKSRWQEGNVFSCSVMHEALHNHYTQKSLSLSLGK
# light 2: QTVVTQEPSLTVSPGGTVTLTCRSSTGAVTTSNYANWVQQKPGQAPRGLIGGTNKRAPGTPARFSGSLLGGKAALTLSGVQPEDEAEYYCALWYSNLWVFGGGTKLTVLGQPKAAPSVTLFPPSSEELQANKATLVCLISDFYPGAVTVAWKADSSPVKAGVETTTPSKQSNNKYAASSYLSLTPEQWKSHRSYSCQVTHEGSTVEKTVAPTECS
# notes: IgG4 PAA; PSMA arm chains first, then CD3 arm (F405L, R409K); also called PSMB127 x CD3B219; PS2B27
# B2: PS3B25 (bispecific antibody, human IgG4 S228P, kappa, lambda, F234A L235A)
# heavy 1: not shown
# light 1: not shown
# heavy 2: B1 heavy 2
# light 2: B1 light 2
# notes: IgG4 PAA; also called PSMB87 x CD3B219
# Tests used:
# [1] = target: T1, recombinant chimpanzee PSMA …; test: SPR ProteOn, bsAb captured by anti-Fc
# Description: The interactions of PSMA×CD3 bispecific mAbs with target (recombinant Chimp, PSMA) were studied by Surface Plasmon Resonance (SPR) using a ProteOn XPR36 system (BioRad). […] Approximately 4400 RU (response units) of anti-Human IgG Fc antibodies were immobilized. The kinetic experiments were performed at 25° C. in running buffer (DPBS+0.03% P20+100 μg/ml BSA). […] The association phase was monitored for 3 minutes at 50 μL/min, then followed by 15 minutes of buffer flow (dissociation phase). The chip surface was regenerated with two 18 second pulses of 100 mM Phosphoric acid (H₃PO₄, Sigma, cat #7961) at 100 μL/min.
# The collected data were processed using ProteOn Manager software. First, the data was corrected for background using inter-spots. Then, double reference subtraction of the data was performed by using the buffer injection for analyte injections. The kinetic analysis of the data was performed using a Langmuir 1:1 binding model.
# [2] = target: T3, recombinant human PSMA extracellular domain (ECD) protein (human, UniProt Q04609 44-750); test: SPR ProteOn
# T3 construct: also called human PSMA ECD
# [3] = target: T2, recombinant cynomolgous monkey PSMA …; test: SPR ProteOn
# [4] = target: T1, recombinant chimpanzee PSMA …; test: SPR ProteOn
# [5] = target: T2, recombinant cynomolgous monkey PSMA …; test: SPR ProteOn, bsAb captured by anti-Fc
# [6] = target: T3, recombinant human PSMA extracellular …; test: SPR ProteOn; remark: listed apart in the source
# [7] = target: T2, recombinant cynomolgous monkey PSMA …; test: SPR ProteOn
# [8] = target: T1, recombinant chimpanzee PSMA …; test: SPR ProteOn
# [9] = target: T3, recombinant human PSMA extracellular …; test: SPR ProteOn, bsAb captured by anti-Fc
binder,measurement,setting,value
B1,Kd,[1],7.48 nM
same,koff,[1],0.00156 s⁻¹
same,kon,[1],208000 M⁻¹ s⁻¹
same,Kd,[2],10.3 nM
same,Kd,[3],7 nM
same,Kd,[4],7.48 nM
same,Kd,[5],7 nM
same,koff,[5],0.0011 s⁻¹
same,kon,[5],159000 M⁻¹ s⁻¹
same,Kd,[6],10.3 nM
same,koff,[6],0.00289 s⁻¹
same,kon,[6],287000 M⁻¹ s⁻¹
same,Kd,[7],7 nM
same,koff,[7],0.0011 s⁻¹
same,kon,[7],159000 M⁻¹ s⁻¹
same,Kd,[8],7.48 nM
same,koff,[8],0.00156 s⁻¹
same,kon,[8],208000 M⁻¹ s⁻¹
same,Kd,[9],10.3 nM
same,koff,[9],0.00289 s⁻¹
same,kon,[9],287000 M⁻¹ s⁻¹
B2,Kd,[1],3.54 nM
same,koff,[1],0.00099 s⁻¹
same,kon,[1],281000 M⁻¹ s⁻¹
same,Kd,[2],5.38 nM
same,Kd,[3],81.1 nM
same,Kd,[4],3.54 nM
same,Kd,[5],81.1 nM
same,koff,[5],0.00797 s⁻¹
same,kon,[5],98000 M⁻¹ s⁻¹
same,Kd,[6],5.38 nM
same,koff,[6],0.00101 s⁻¹
same,kon,[6],188000 M⁻¹ s⁻¹
same,Kd,[7],81.1 nM
same,koff,[7],0.00797 s⁻¹
same,kon,[7],98000 M⁻¹ s⁻¹
same,Kd,[8],3.54 nM
same,koff,[8],0.00099 s⁻¹
same,kon,[8],281000 M⁻¹ s⁻¹
same,Kd,[9],5.38 nM
same,koff,[9],0.00101 s⁻¹
same,kon,[9],188000 M⁻¹ s⁻¹
